The target of one test is T1, immobilized IL13Rα2 (UniProt Q14627 27-343, limits assumed).
T1 construct: also called IL13Ra2
T1 sequence (looked up): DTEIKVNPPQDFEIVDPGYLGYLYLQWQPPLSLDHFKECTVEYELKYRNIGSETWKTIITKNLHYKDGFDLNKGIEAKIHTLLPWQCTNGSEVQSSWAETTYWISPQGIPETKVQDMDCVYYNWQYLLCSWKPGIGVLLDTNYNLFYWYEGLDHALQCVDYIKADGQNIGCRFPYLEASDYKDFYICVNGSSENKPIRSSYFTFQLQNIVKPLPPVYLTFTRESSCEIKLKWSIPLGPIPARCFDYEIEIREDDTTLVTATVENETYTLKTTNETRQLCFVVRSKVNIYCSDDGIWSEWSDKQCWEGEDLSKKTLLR
In words: yeast-displayed IL13; surface plasmon resonance with immobilized recombinant receptor, as the filing words it. The text has this:
(§1) In an effort to identify IL13 variants with increased selectivity for binding IL13Rα2 relative to IL13Rα1. To assess receptor binding various mutants were compared to wild-type IL13 ([…] […]; SEQ ID NO: 1) and the previously known […] E11Y mutant ([…] […]; SEQ ID NO: 69). […] Surface plasmon resonance with immobilized recombinant IL13Rα1 and immobilized IL13Rα2 was used to assess binding affinity. As expected, WT bound strongly to both IL13Rα1 and IL13Rα2.

Test [1] addresses T2, immobilized recombinant IL13Rα1 (UniProt P78552 22-343, limits assumed).
T2 construct: also called IL13Ra1
T2 sequence (looked up): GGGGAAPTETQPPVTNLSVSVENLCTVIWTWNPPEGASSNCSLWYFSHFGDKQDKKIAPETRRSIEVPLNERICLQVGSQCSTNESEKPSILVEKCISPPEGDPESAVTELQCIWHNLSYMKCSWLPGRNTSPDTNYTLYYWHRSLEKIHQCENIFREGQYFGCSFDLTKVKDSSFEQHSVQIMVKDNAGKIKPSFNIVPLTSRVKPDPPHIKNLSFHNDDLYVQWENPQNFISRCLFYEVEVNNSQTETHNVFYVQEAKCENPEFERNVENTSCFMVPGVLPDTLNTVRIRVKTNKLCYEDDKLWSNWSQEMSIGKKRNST
In words: yeast-displayed IL13 variant; surface plasmon resonance with immobilized recombinant receptor, as the filing words it.
Text: as §1
On the technique in general: SPR reads the build-up and loss of mass on a sensor chip optically.

B1: IL13 variant RLK (E11R: E90L: R107K) (ligand)
chain: GPVPPSTALRRLIEELVNITQNQKAPLCNGSMVWSINLTAGMYCAALESLINVSGCSAIEKTQRMLSGFCPHKVSAGQFSSLHVRDTKILVAQFVKDLLLHLKKLFKEGRFN
notes: display scaffold not described
With B1, the equilibrium dissociation constant (Kd) in the test with immobilized IL13Rα2 was 0.028 µM. Also, the binding result in test [1] is recorded as “no binding”.

B2: IL13 variant YLK (E11Y: E90L: R107K) (ligand)
chain: GPVPPSTALRYLIEELVNITQNQKAPLCNGSMVWSINLTAGMYCAALESLINVSGCSAIEKTQRMLSGFCPHKVSAGQFSSLHVRDTKILVAQFVKDLLLHLKKLFKEGRFN
notes: as for B1
For the molecule B2, the equilibrium dissociation constant (Kd) in the test with immobilized IL13Rα2 turned out to be 0.026 µM. For the same molecule, the binding result in test [1] is on record as “no binding”.

One may read the Kd as the constant that tells how readily two partners part at equilibrium.

These data come from US20230405119A1 (CITY OF HOPE, published 2023).
